In the supplement of paper PMC10567573 one finds protein stability index data, which are given here for 94 variants.

To fix the notation:
B1: SPDEF (parent)
chain: YPEDSSWAAKAPGASSREEPPEEP
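Note: lentivirally expressed fusions sorted by FACS into six bins by GFP to DsRed ratio, PSI derived from sequencing read proportions per bin multiplied by bin number.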

Variants of B1 are the subject of this data set. The experiment in a line: protein stability index of a GFP-peptide fusion (GPS, HEK-293T) (PSI 1-6); higher = more stable. To be noted: c terminus: a fixed tail appended.
Take YPEDSSWPAKAPGASSREEPPEEP [A8P]: the protein stability index stood at 5.38.

For the variant YPEDSSWHAKAPGASSREEPPEEP [A8H], the protein stability index is 2.87.

In the case of YPEDSSWCAKAPGASSREEPPEEP [A8C], the protein stability index is 4.09.

Turning to YPEDSSWQAKAPGASSREEPPEEP [A8Q], the protein stability index amounted to 4.34.

Regarding YPEDSSWAAKAPGASSREEPEEEP [P21E], the protein stability index is 4.26.

For the variant YPEDSSWAAKAPGASSREEPLEEP [P21L], the protein stability index was determined as 4.04.

With YPEDSSWAAKAPGASSREEPNEEP [P21N], the protein stability index was determined as 4.12.

On to YPEDSSWAAKAPGASSREEPGEEP [P21G], for which the protein stability index is 4.04.

As to YPEDSSWAAKAPGASSREEPKEEP [P21K], the protein stability index came out at 3.29.

With YPEDSSWAAKAPGASSREEPVEEP [P21V], the protein stability index is 3.91.

Consider YPEDSSWAAKAPGASSREEPAEEP [P21A], for which the protein stability index stood at 3.63.

On to YPEDSSWAAKAPGASSREEPTEEP [P21T], for which the protein stability index was found to be 3.64.

As for YPEDSSWAAKAPGASSREEPFEEP [P21F], the protein stability index is 3.76.

Take YPEDSSWAAKAPGASSREEPREEP [P21R]: the protein stability index amounted to 4.25.

Take YPEDSSWAAKAPGASSREEPPVEP [E22V]: the protein stability index was 4.23.

In the case of YPEDSSWAAKAPGASSREEPPPEP [E22P], the protein stability index amounted to 3.06.

For YPEDSSWAAKAPGASSREEPPHEP [E22H], the protein stability index was 4.06.

Regarding YPEDSSWAAKAPGASSREEPPAEP [E22A], the protein stability index is 4.38.

YPEDSSWAAKAPGASSREEPPKEP [E22K]: the protein stability index worked out at 3.88.

For YPEDSSWAAKAPGASSREEPPGEP [E22G], the protein stability index is 2.79.

On to YPEDSSWAAKAPGASSREEPPCEP [E22C], for which the protein stability index came to 3.49.

Consider YPEDSSWAAKAPGASSREEPPDEP [E22D], for which the protein stability index was 3.4.

For YPEDSSWAAKAPGASSTEEPPEEP [R17T], the protein stability index is 4.06.

Take YPEDSSWAAKAPGASSCEEPPEEP [R17C]: the protein stability index came to 3.96.

Turning to YPEDSSWAAKAPGASSMEEPPEEP [R17M], the protein stability index is 4.22.

As for YPEDSSWAAKAPGASSSEEPPEEP [R17S], the protein stability index worked out at 4.

As to YPEDSSWAAKAPGASSPEEPPEEP [R17P], the protein stability index stood at 3.85.

For the variant YPYDSSWAAKAPGASSREEPPEEP [E3Y], the protein stability index was 2.37.

As for YPFDSSWAAKAPGASSREEPPEEP [E3F], the protein stability index amounted to 2.99.

For YPGDSSWAAKAPGASSREEPPEEP [E3G], the protein stability index was 2.72.

Regarding YPSDSSWAAKAPGASSREEPPEEP [E3S], the protein stability index stood at 2.66.

YPLDSSWAAKAPGASSREEPPEEP [E3L]: the protein stability index was 4.69.

As to YPWDSSWAAKAPGASSREEPPEEP [E3W], the protein stability index was 2.18.

For YPMDSSWAAKAPGASSREEPPEEP [E3M], the protein stability index was determined as 2.49.

In the case of YPEDSSWAAKAPGASSRDEPPEEP [E18D], the protein stability index is 4.86.

YPEDSSWAAKAPGASSRCEPPEEP [E18C]: the protein stability index came to 2.82.

Turning to YPEDSSWAAKAPGASSRTEPPEEP [E18T], the protein stability index came out at 3.24.

For the variant YPEDSSWAAKAPGASSRQEPPEEP [E18Q], the protein stability index was found to be 3.37.

Consider YPEDSSWAAKAPGASSRMEPPEEP [E18M], for which the protein stability index came out at 3.77.

Take YPEDSSWAAKAPGASCREEPPEEP [S16C]: the protein stability index was determined as 3.83.

YPEDSSWAAKAPGASMREEPPEEP [S16M]: the protein stability index stood at 4.67.

Consider YPEDSSWAAKAPGASNREEPPEEP [S16N], for which the protein stability index came to 3.53.

Regarding YPEDSSWAAKAPGASWREEPPEEP [S16W], the protein stability index is 3.71.

In the case of YPEDSSWAAKAPGASIREEPPEEP [S16I], the protein stability index amounted to 3.86.

As to YPEDSSWAAKAPGASQREEPPEEP [S16Q], the protein stability index amounted to 2.88.

On to YPEDSSWAAKAPGASSREEPPEKP [E23K], for which the protein stability index was 2.69.

Turning to YPEDSSWAAKAPGASSREEPPECP [E23C], the protein stability index is 4.3.

In the case of YPEDSSWAYKAPGASSREEPPEEP [A9Y], the protein stability index is 2.88.

As for YPEDSSWARKAPGASSREEPPEEP [A9R], the protein stability index stood at 4.36.

Consider YPEDSSWAPKAPGASSREEPPEEP [A9P], for which the protein stability index was determined as 4.23.

As for YPEDSSWAWKAPGASSREEPPEEP [A9W], the protein stability index came out at 3.11.

Consider YPEDSSWAHKAPGASSREEPPEEP [A9H], for which the protein stability index came out at 3.4.

As to YPEDSSWAEKAPGASSREEPPEEP [A9E], the protein stability index amounted to 5.42.

For the variant YPEDSSWAANAPGASSREEPPEEP [K10N], the protein stability index amounted to 4.19.

Regarding YPEDSSWAAIAPGASSREEPPEEP [K10I], the protein stability index stood at 3.65.

In the case of YPEDSSWAAKAPGASSREEGPEEP [P20G], the protein stability index was found to be 4.43.

With YPEDSSWAAKAPGASSREENPEEP [P20N], the protein stability index was found to be 3.62.

With YPEDSSWAAKAPGASSREELPEEP [P20L], the protein stability index is 3.11.

For YCEDSSWAAKAPGASSREEPPEEP [P2C], the protein stability index is 1.94.

As for YIEDSSWAAKAPGASSREEPPEEP [P2I], the protein stability index worked out at 2.53.

As for YFEDSSWAAKAPGASSREEPPEEP [P2F], the protein stability index stood at 5.57.

Turning to YDEDSSWAAKAPGASSREEPPEEP [P2D], the protein stability index worked out at 5.73.

YNEDSSWAAKAPGASSREEPPEEP [P2N]: the protein stability index turned out to be 5.78.

YWEDSSWAAKAPGASSREEPPEEP [P2W]: the protein stability index amounted to 4.68.

Consider YPEDSSWAAKAPTASSREEPPEEP [G13T], for which the protein stability index amounted to 3.91.

For YPEDSSWAAKAPDASSREEPPEEP [G13D], the protein stability index is 3.36.

On to YPEDSSWAAKAPGANSREEPPEEP [S15N], for which the protein stability index was 3.9.

In the case of YPEDSSWAAKAPGAMSREEPPEEP [S15M], the protein stability index was 3.77.

As for YPEDSSWAAKAPGAPSREEPPEEP [S15P], the protein stability index was 4.36.

With YPEDSSWAAKAPGAHSREEPPEEP [S15H], the protein stability index turned out to be 4.72.

For YPEDSSWAAKAPGAISREEPPEEP [S15I], the protein stability index is 4.11.

With YPEDSSWAAKAPGAKSREEPPEEP [S15K], the protein stability index came to 3.23.

Consider YPEDSSDAAKAPGASSREEPPEEP [W7D], for which the protein stability index stood at 6.

Regarding YPEDSSRAAKAPGASSREEPPEEP [W7R], the protein stability index amounted to 5.96.

For YPEDSSTAAKAPGASSREEPPEEP [W7T], the protein stability index came to 5.98.

Turning to YPEDSSMAAKAPGASSREEPPEEP [W7M], the protein stability index was determined as 4.42.

For YPEDSSHAAKAPGASSREEPPEEP [W7H], the protein stability index was 5.95.

For the variant YPEDSEWAAKAPGASSREEPPEEP [S6E], the protein stability index is 5.03.

Consider YPEDSNWAAKAPGASSREEPPEEP [S6N], for which the protein stability index amounted to 4.9.

For YPEDSTWAAKAPGASSREEPPEEP [S6T], the protein stability index was 4.57.

For the variant YPEDSFWAAKAPGASSREEPPEEP [S6F], the protein stability index worked out at 1.84.

On to YPETSSWAAKAPGASSREEPPEEP [D4T], for which the protein stability index came to 2.39.

YPEPSSWAAKAPGASSREEPPEEP [D4P]: the protein stability index worked out at 2.09.

For the variant YPEISSWAAKAPGASSREEPPEEP [D4I], the protein stability index stood at 3.25.

As to YPEDSSWAAKAPGASSREEPPEEY [P24Y], the protein stability index is 4.17.

With YPEDSSWAAKAPGASSREEPPEEC [P24C], the protein stability index came to 4.4.

As for YPEDSSWAAKFPGASSREEPPEEP [A11F], the protein stability index amounted to 3.71.

As for YPEDSSWAAKYPGASSREEPPEEP [A11Y], the protein stability index amounted to 3.75.

In the case of YPEDSSWAAKIPGASSREEPPEEP [A11I], the protein stability index was found to be 3.51.

As to YPEDSSWAAKKPGASSREEPPEEP [A11K], the protein stability index was 3.9.

Consider YPEDSSWAAKDPGASSREEPPEEP [A11D], for which the protein stability index was determined as 4.51.

Turning to YPEDSSWAAKLPGASSREEPPEEP [A11L], the protein stability index was determined as 3.76.

Consider YPEDSSWAAKEPGASSREEPPEEP [A11E], for which the protein stability index is 3.99.

On to YPEDSSWAAKMPGASSREEPPEEP [A11M], for which the protein stability index stood at 2.63.
